Laboratory results reported in US20090208977A1.

Tests used:
[1] = molecular target: human BRS3 (ENSG00000102239) (human) (UniProt P32247); test: flow cytometry, live human sperm; antibody not named (SC33404 is the only BRS3 antibody that bound)
[2] = molecular target: human FMR1NB (ENSG00000176988) (human) (UniProt Q8N0W7); test: flow cytometry, live human sperm; antibody not named (only one FMR1NB antibody was tried)
Chain of UniProt Q8N0W7 (Q8N0W7 whole entry): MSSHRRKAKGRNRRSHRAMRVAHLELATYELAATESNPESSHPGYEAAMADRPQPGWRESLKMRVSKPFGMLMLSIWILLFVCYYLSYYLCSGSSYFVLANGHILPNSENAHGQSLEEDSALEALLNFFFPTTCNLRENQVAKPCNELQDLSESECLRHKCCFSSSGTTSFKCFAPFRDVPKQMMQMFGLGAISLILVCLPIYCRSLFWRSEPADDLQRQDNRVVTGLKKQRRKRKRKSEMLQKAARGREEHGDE

Chain of UniProt P32247 (P32247 whole entry): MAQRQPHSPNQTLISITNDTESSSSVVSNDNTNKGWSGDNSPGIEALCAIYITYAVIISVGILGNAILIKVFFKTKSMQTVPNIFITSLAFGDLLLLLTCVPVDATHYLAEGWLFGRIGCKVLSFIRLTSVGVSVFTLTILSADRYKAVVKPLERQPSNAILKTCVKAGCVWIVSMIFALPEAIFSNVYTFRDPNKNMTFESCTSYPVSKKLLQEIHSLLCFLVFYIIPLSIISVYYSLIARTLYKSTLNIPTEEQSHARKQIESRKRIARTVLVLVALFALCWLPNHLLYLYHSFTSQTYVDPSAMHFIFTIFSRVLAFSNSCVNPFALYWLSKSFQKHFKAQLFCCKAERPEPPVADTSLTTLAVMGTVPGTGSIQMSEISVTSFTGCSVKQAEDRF

Row | Sperm cells showing specific binding (%) [1] | Sperm cells showing specific binding (%) [2] | Substance
1 | 10.7% | – | BRS-3 (N-14), Santa Cruz Biotechnology SC-33404 (antibody)
2 | – | 29.7% | FMR1NB antibody, Proteintech Group 11069-2-AP
